From patent US20210093714A1, “Combination and method for inhibiting the cancer cells” (NATIONAL TAIWAN UNIVERSITY, priority 2013, published 2021) come the findings set out here.

Experiment [1] relates to lung adenocarcinoma cell line, CL1-5. Put plainly: Anoikis assay (DNA fragmentation). To be noted: FIG. 5A. It counts as cell-based, human. An excerpt:
This embodiment focuses on whether CCN2 can induce anoikis in lung adenocarcinoma cells in vitro and in vivo. At first, CCN2 induces anoikis which is induced by CCN2 in lung adenocarcinoma cells in vitro was observed by anoikis assay, the results shown in FIGS. 5A to 5C.

For the next experiment, the system named is β-pix/c-Cbl complex. As to the kind of experiment: Immunoprecipitation/western blot of β-pix/c-Cbl complex and β-pix phosphorylation. It counts as cell-based, human. The following applies: CL1-5; 0 to 60 minutes; FIG. 4G. Here is the method: (§1) Proteins ([…]) were separated by SDS-PAGE and transferred to a polyvinylidene difluoride membrane (Immobilon-P membrane; Millipore) by electrotransfer. The blot was blocked in a solution of 5% skim milk and 0.1% Tween 20 in PBS. Thereafter, membrane-bound proteins were probed with the following primary antibodies: CCN2, DAPK, phosphorylated ERK, ERK-1, phosphorylated Akt, Akt, TrkA, phosphorylated-Src, Src, b-actin, a-tubulin (Santa Cruz Biotechnology), p-EGFR, and EGFR (Cell Signaling Technology, Danvers, MA, USA). The membrane was washed and then incubated with HRP-conjugated secondary antibodies for 30 min. Enhanced chemiluminescence reagents (Amersham Pharmacia Biotech, Piscataway, N.J., USA) were employed to depict the protein bands on membranes. The light was captured on Kodak X-Omat Blue autoradiography film (PerkinElmer Life Sciences, Boston, Mass., USA).
(§2) CCN2 transfectants were seeded overnight and incubated in serum-free media for 24 h. For immunoprecipitations, cells were lysed in an RIPA buffer (150 mM NaCl, 50 mM Tris-base, 5 mM EDTA, 1% NP-40, and 0.25% deoxycholate; pH 7.4). Protein concentrations were determined using the BCA protein assay kit (Pierce, Rockford, Ill., USA). […]

For experiment [2], the system named is lung adenocarcinoma cell line, CL1-0/siCCN2. Put plainly: Anoikis assay with DAPK siRNA. It is filed as cell-based, human. The following applies: CL1-0/siCCN2 in suspension, DAPK expression decreased due to siRNA; 24 h; FIG. 6C.
For experiment [3], the system named is EGFR. As to the kind of experiment: Immunoprecipitation and in vitro binding assay of CCN2 and EGFR. Set-up: species or system human. To be noted: A549; FIG. 2C. Here is the method:
CCN2 transfectants were seeded overnight and incubated in serum-free media for 24 h. For immunoprecipitations, cells were lysed in an RIPA buffer (150 mM NaCl, 50 mM Tris-base, 5 mM EDTA, 1% NP-40, and 0.25% deoxycholate; pH 7.4). Protein concentrations were determined using the BCA protein assay kit (Pierce, Rockford, Ill., USA). Lysate was incubated for 2 h at 4[…] with gentle rotation with rabbit polyclonal antibodies for human EGFR, CCN2, or Src immobilized onto protein A—sepharose beads (Santa Cruz Biotechnology, Santa Cruz, Calif., USA). Beads were washed twice with an IP buffer (137 mM NaCl, 2.7 mM KCl, 1 mM MgCl2, 1 mM CaCl2, 1% NP-40, 10% glycerol, 1 mg/ml bovine serum albumin, and 20 mM Tris; pH 8.0), boiled in a sodium dodecyl sulfate-polyacrylamide gel electrophoresis (SDS-PAGE) sample buffer, and centrifuged (12000×g, 4° C. for 15 min).
The recombinant proteins rCCN2 (BioVendor Com. Heidelberg, Germany), rEGFR, and rEGF (R&D Techne Corporation) ([…]) were added in binding buffer (50 mM sodium phosphate, pH 7.5, 500 mM NaCl, and I% Nonidet P-40) and incubated with gentle rotation at 4° C. for 2 h. Thereafter, crosslinks were reversed by boiling in an SDS-PAGE sample buffer (containing 0.1M dithiothreitol (DTT)) before loading on SDS-PAGE gels for immunoblotting analysis. […]

The target of experiment [4] is T1, Epidermal growth factor receptor (EGFR) (human, UniProt P00533 25-1210).
T1 construct: whole, on cells; FACS and immunoprecipitation used EGFR in or on cells
As to the kind of experiment: FACS on CL1-5 and A549 cells (legend of FIG. 2B). Here is the method: After washing, cells were stained with an FITC-labelled goat anti-rabbit secondary antibody (Santa Cruz Biotechnology) for 30 min in the dark. Analysis was then conducted with an FACS Calibur cytometer (Collaborative Biomedical, BD Biosciences).

In experiment [5] the target is T2, EGFR (Homo sapiens, UniProt P00533).
T2 construct: endogenous in cells; host or cells: CL1-5 and A549 human lung adenocarcinoma cell lines
As to the kind of experiment: Western blot of EGFR ubiquitination. The following applies: CL1-5; FIG. 4C. It is filed as cell-based. On the procedure: as §1, §2

Another experiment deals with c-Src. Put plainly: Western blot of c-Src autophosphorylation. It counts as cell-based, human. To be noted: CL1-5; 0 to 60 minutes; FIG. 3E. On the procedure:
as §1
Next, the effect of CCN2 on the formation of EGFR/Src complex and the phosphorylation of Src in the lung adenocarcinoma cell lines, CL1-5, A549 and CL1-0/siCCN2, was observed by western blot analysis, the results shown in FIGS. 3C to 3E.

Experiment [6] deals with EGFR. As to the kind of experiment: Western blot of EGFR expression in PC9/WT and PC9/IR. It is filed as cell-based. To be noted: 100 ng/mL rCCN2, 0 to 12 hours, FIG. 8C. Here is the method: as §1

B1: Connective tissue growth factor (CCN2), wild-type full length (ligand, human, UniProt P29279 27-349, looked up)
chain: QNCSGPCRCPDEPAPRCPAGVSLVLDGCGCCRVCAKQLGELCTERDPCDPHKGLFCHFGSPANRKIGVCTAKDGAPCIFGGTVYRSGESFQSSCKYQCTCLDGAVGCMPLCSMDVRLPSPDCPFPRRVKLPGKCCEEWVCDEPKDQTVVGPALAAYRLEDTFGPDPTMIRANCLVQTTEWSACSKTCGMGISTRVTNDNASCRLEKQSRLCMVRPCEADLEENIKKGKKCIRTPKISKPIKFELSGCTSMKTYRAKFCGVCTDGRCCTPHRTTTLPVEFKCPDGEVMKKNMMFIKTCACHYNCPGDNDIFESLYYRKMYGDMA
notes: also called Recombinant CCN2; exogenous CCN2
B1: the DNA fragmentation result in experiment [1] (attached CL1-5, rCCN2 0, 20, 100, 200 ng/mL) is reported as “no obvious difference”; in experiment [1] (suspended CL1-5, rCCN2 with higher concentration), “increased”. In addition, the “formation of β-pix/c-Cbl complex” value in the experiment on β-pix/c-Cbl complex is given as “gradually reduce the formation of β-pixie-Chi complex”. Also, the β-pix phosphorylation entry with β-pix/c-Cbl complex is recorded as “reduces β-pix phosphorylation”. In experiment [2], the “rCCN2 induced DNA fragmentation” value was “decreased”. In the experiment on EGFR [3], the “physical association between CCN2 and EGFR” value is listed as “there is a physically association”. In experiment [4], the binding result is given as “binds”. Besides, in the experiment with EGFR [5], the EGFR ubiquitination degree entry is given as “increase the EGFR ubiquitination degree”. Moreover, in the experiment with c-Src, the “autophosphorylation of c-Src Y416” value is “gradually inhibit the autophosphorylation of c-Src^Y416”. For the same molecule, the “expression of EGFR” value in the experiment with EGFR [6] (attached PC9/IR) and in the experiment on EGFR [6] (attached PC9/WT) was “suppressed more significantly” in each case.
